The target in assay [1] is human P-cadherin, cell surface-expressed on NCI-H1650 adenocarcinoma cells (Homo sapiens (Human).) (UniProt P22223).
The target of assay [2] is human P-cadherin expressed on the surface of CHO cells (Homo sapiens) (UniProt P22223). Description: KinExA; human P-cadherin expressed on the surface of CHO cells; PBS pH 7.4 with MgCl2, CaCl2 and 1 mg/mL BSA; 4 °C for 2 h.
Assay [3] addresses human P-cadherin-Fc (recombinant human P-cadherin ECD protein) (Homo sapiens (Human).) (UniProt P22223). Description: ELISA; cadherin-Fc, P-cadherin His or CD3 epsilon-delta protein coated at 1 or 2 µg/mL; sample in 3% milk/PBS + Ca2+ and Mg2+, 1 h at room temperature.
The target in assay [4] is soluble human CD3 epsilon-delta heterodimer (Homo sapiens (Human).) (UniProt P07766). Described as above.
Chain of UniProt P07766 (P07766 23-126, stated change not applied, chain 1 of 2): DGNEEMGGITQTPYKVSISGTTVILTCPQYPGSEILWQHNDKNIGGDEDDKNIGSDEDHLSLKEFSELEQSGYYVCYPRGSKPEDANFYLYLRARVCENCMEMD
Chain of UniProt P07766 (P04234 22-105, stated change not applied, chain 2 of 2, further chain): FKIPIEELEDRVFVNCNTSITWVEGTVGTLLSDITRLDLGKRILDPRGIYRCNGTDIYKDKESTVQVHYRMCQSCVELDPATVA
Assay [5] deals with human P-cadherin, cell surface-expressed on NCI-H1650 adenocarcinoma cells (Homo sapiens (Human).) (UniProt P22223). Description: ELISA; cell binding ELISA on a confluent monolayer of NCI-H1650 cells; DART in 3% milk/PBS + Ca2+ and Mg2+, 1 h at room temperature; HRP-labelled secondary antibody.
The target in assay [6] is cynomolgus monkey P-cadherin extracellular domain (ECD) (Macaca fascicularis). Description: KinExA; recombinant cynomolgus monkey P-cadherin; PBS pH 7.4 with MgCl2, CaCl2 and 1 mg/mL BSA; PMMA beads; 4 °C for 2 h.
For assay [7] the target is unchanged. Briefly: SPR; Biacore 3000 and T-200; P-cadherin or human CD3 protein immobilised on CM5 by amine coupling (~75–300 RU); DART injected in two-fold series 100 to 6.25 nM; TBS-P+ (10 mM Tris pH 7.4, 150 mM NaCl, 2 mM CaCl2, 0.1 mg/mL BSA, 0.05% P20); global 1:1 Langmuir fit.
In assay [8] the target is human P-cadherin-Fc (recombinant human P-cadherin ECD protein) (Homo sapiens (Human).) (UniProt P22223). Described as above.
Assay [9] addresses soluble human CD3 epsilon-delta heterodimer (Homo sapiens (Human).) (UniProt P07766). The assay is described as above.

Substance “PF-06671008 (anti-P-cadherin LP-DART #153) (bispecific antibody)” gave a redirected killing of DU145 cells by human PBMCs (LDH release, 24 h, E:T 30:1), EC50 in assay [1] of 3.1 pM. The redirected killing of HCT-116 cells by human PBMCs (LDH release, 24 h, E:T 30:1), EC50 in assay [1] was determined as 123 pM. The Kd was 0.176 nM in assay [2]; 0.352 nM in assay [6]; 0.521 nM in [7]; over 1 nM in assay [8]; 11.5 nM in [9]. Also, the EC50 in [3] worked out at 0.92 nM; in assay [4], 4.37 nM; in assay [5], 0.593 nM. The substance also gave a koff in assay [7] of 0.000205 s⁻¹. This substance also registered a kon in assay [7] of 437000 M⁻¹ s⁻¹.

Values taken from article PMC6698862.
